For 8 molecules, IC50 results are on record in patent US20160272683A1 (Novo Nordisk, published 2016).

Numbered stars: 1 amine (or outer) side, 2 acyl side, 3 side chain; on linkers, the order of the positions; unused ones are H or OH. * marks the point of attachment. C20 diacid = O=C(O)CCCCCCCCCCCCCCCCCCC(=O)*; γGlu = O=C(O)[C@H](CCC(=O)[*:2])N[*:1]

The chains are these.
T1: human calcitonin receptor (human, UniProt P30988 25-474)
T1 construct: whole, on cells; also called hCT-R; hCTR
T1 sequence (looked up): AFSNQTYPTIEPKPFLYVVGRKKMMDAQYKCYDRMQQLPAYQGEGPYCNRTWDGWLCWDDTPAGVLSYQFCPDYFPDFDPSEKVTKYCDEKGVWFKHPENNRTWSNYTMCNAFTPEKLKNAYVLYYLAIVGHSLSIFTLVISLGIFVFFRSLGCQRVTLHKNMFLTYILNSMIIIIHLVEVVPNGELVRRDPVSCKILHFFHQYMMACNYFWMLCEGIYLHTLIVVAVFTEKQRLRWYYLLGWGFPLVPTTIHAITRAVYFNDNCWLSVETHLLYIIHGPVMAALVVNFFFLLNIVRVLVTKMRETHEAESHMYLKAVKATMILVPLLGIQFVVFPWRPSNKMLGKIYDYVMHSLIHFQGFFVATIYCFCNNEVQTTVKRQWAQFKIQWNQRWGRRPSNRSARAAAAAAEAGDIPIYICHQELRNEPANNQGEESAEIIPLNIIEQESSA

B1: [N-terminal(C20 diacid-gGlu), des1, 25H, 30S, 31G]mimylin (peptide)
peptide: {C20 diacid-γGlu}-ASELSTAALGRLSAELHELATLPHTETGSGSP-NH2
SMILES: CC(C)C[C@H](NC(=O)[C@H](C)NC(=O)[C@H](C)NC(=O)[C@@H](NC(=O)[C@H](CO)NC(=O)[C@H](CC(C)C)NC(=O)[C@H](CCC(=O)O)NC(=O)[C@H](CO)NC(=O)[C@H](C)NC(=O)CC[C@H](NC(=O)CCCCCCCCCCCCCCCCCCC(=O)O)C(=O)O)[C@@H](C)O)C(=O)NCC(=O)N[C@@H](CCCNC(=N)N)C(=O)N[C@@H](CC(C)C)C(=O)N[C@@H](CO)C(=O)N[C@@H](C)C(=O)N[C@@H](CCC(=O)O)C(=O)N[C@@H](CC(C)C)C(=O)N[C@@H](Cc1c[nH]cn1)C(=O)N[C@@H](CCC(=O)O)C(=O)N[C@@H](CC(C)C)C(=O)N[C@@H](C)C(=O)N[C@H](C(=O)N[C@@H](CC(C)C)C(=O)N1CCC[C@H]1C(=O)N[C@@H](Cc1c[nH]cn1)C(=O)N[C@H](C(=O)N[C@@H](CCC(=O)O)C(=O)N[C@H](C(=O)NCC(=O)N[C@@H](CO)C(=O)NCC(=O)N[C@@H](CO)C(=O)N1CCC[C@H]1C(N)=O)[C@@H](C)O)[C@@H](C)O)[C@@H](C)O
notes: also called Ex. #73
B2: [N-terminal(C20 diacid-gGlu), des1, 30S, 31G, 33S]mimylin (peptide)
peptide: {C20 diacid-γGlu}-ASELSTAALGRLSAELHELATLPRTETGSGSS-NH2
SMILES: CC(C)C[C@H](NC(=O)[C@H](C)NC(=O)[C@H](C)NC(=O)[C@@H](NC(=O)[C@H](CO)NC(=O)[C@H](CC(C)C)NC(=O)[C@H](CCC(=O)O)NC(=O)[C@H](CO)NC(=O)[C@H](C)NC(=O)CC[C@H](NC(=O)CCCCCCCCCCCCCCCCCCC(=O)O)C(=O)O)[C@@H](C)O)C(=O)NCC(=O)N[C@@H](CCCNC(=N)N)C(=O)N[C@@H](CC(C)C)C(=O)N[C@@H](CO)C(=O)N[C@@H](C)C(=O)N[C@@H](CCC(=O)O)C(=O)N[C@@H](CC(C)C)C(=O)N[C@@H](Cc1c[nH]cn1)C(=O)N[C@@H](CCC(=O)O)C(=O)N[C@@H](CC(C)C)C(=O)N[C@@H](C)C(=O)N[C@H](C(=O)N[C@@H](CC(C)C)C(=O)N1CCC[C@H]1C(=O)N[C@@H](CCCNC(=N)N)C(=O)N[C@H](C(=O)N[C@@H](CCC(=O)O)C(=O)N[C@H](C(=O)NCC(=O)N[C@@H](CO)C(=O)NCC(=O)N[C@@H](CO)C(=O)N[C@@H](CO)C(N)=O)[C@@H](C)O)[C@@H](C)O)[C@@H](C)O
notes: also called Ex. #63
B3: [N-terminal(C20 diacid-gGlu), des1, 30S, 31G, 33G]mimylin (peptide)
peptide: {C20 diacid-γGlu}-ASELSTAALGRLSAELHELATLPRTETGSGSG-NH2
SMILES: CC(C)C[C@H](NC(=O)[C@H](C)NC(=O)[C@H](C)NC(=O)[C@@H](NC(=O)[C@H](CO)NC(=O)[C@H](CC(C)C)NC(=O)[C@H](CCC(=O)O)NC(=O)[C@H](CO)NC(=O)[C@H](C)NC(=O)CC[C@H](NC(=O)CCCCCCCCCCCCCCCCCCC(=O)O)C(=O)O)[C@@H](C)O)C(=O)NCC(=O)N[C@@H](CCCNC(=N)N)C(=O)N[C@@H](CC(C)C)C(=O)N[C@@H](CO)C(=O)N[C@@H](C)C(=O)N[C@@H](CCC(=O)O)C(=O)N[C@@H](CC(C)C)C(=O)N[C@@H](Cc1c[nH]cn1)C(=O)N[C@@H](CCC(=O)O)C(=O)N[C@@H](CC(C)C)C(=O)N[C@@H](C)C(=O)N[C@H](C(=O)N[C@@H](CC(C)C)C(=O)N1CCC[C@H]1C(=O)N[C@@H](CCCNC(=N)N)C(=O)N[C@H](C(=O)N[C@@H](CCC(=O)O)C(=O)N[C@H](C(=O)NCC(=O)N[C@@H](CO)C(=O)NCC(=O)N[C@@H](CO)C(=O)NCC(N)=O)[C@@H](C)O)[C@@H](C)O)[C@@H](C)O
notes: also called Ex. #64
B4: [N-terminal(C20 diacid-gGlu), des1, 30S, 31G, 33L]mimylin (peptide)
peptide: {C20 diacid-γGlu}-ASELSTAALGRLSAELHELATLPRTETGSGSL-NH2
SMILES: CC(C)C[C@H](NC(=O)[C@H](CO)NC(=O)CNC(=O)[C@H](CO)NC(=O)CNC(=O)[C@@H](NC(=O)[C@H](CCC(=O)O)NC(=O)[C@@H](NC(=O)[C@H](CCCNC(=N)N)NC(=O)[C@@H]1CCCN1C(=O)[C@H](CC(C)C)NC(=O)[C@@H](NC(=O)[C@H](C)NC(=O)[C@H](CC(C)C)NC(=O)[C@H](CCC(=O)O)NC(=O)[C@H](Cc1c[nH]cn1)NC(=O)[C@H](CC(C)C)NC(=O)[C@H](CCC(=O)O)NC(=O)[C@H](C)NC(=O)[C@H](CO)NC(=O)[C@H](CC(C)C)NC(=O)[C@H](CCCNC(=N)N)NC(=O)CNC(=O)[C@H](CC(C)C)NC(=O)[C@H](C)NC(=O)[C@H](C)NC(=O)[C@@H](NC(=O)[C@H](CO)NC(=O)[C@H](CC(C)C)NC(=O)[C@H](CCC(=O)O)NC(=O)[C@H](CO)NC(=O)[C@H](C)NC(=O)CC[C@H](NC(=O)CCCCCCCCCCCCCCCCCCC(=O)O)C(=O)O)[C@@H](C)O)[C@@H](C)O)[C@@H](C)O)[C@@H](C)O)C(N)=O
notes: also called Ex. #62
B5: [N-terminal(C20 diacid-gGlu), des1, 30S, 31G, 33F]mimylin (peptide)
peptide: {C20 diacid-γGlu}-ASELSTAALGRLSAELHELATLPRTETGSGSF-NH2
SMILES: CC(C)C[C@H](NC(=O)[C@H](C)NC(=O)[C@H](C)NC(=O)[C@@H](NC(=O)[C@H](CO)NC(=O)[C@H](CC(C)C)NC(=O)[C@H](CCC(=O)O)NC(=O)[C@H](CO)NC(=O)[C@H](C)NC(=O)CC[C@H](NC(=O)CCCCCCCCCCCCCCCCCCC(=O)O)C(=O)O)[C@@H](C)O)C(=O)NCC(=O)N[C@@H](CCCNC(=N)N)C(=O)N[C@@H](CC(C)C)C(=O)N[C@@H](CO)C(=O)N[C@@H](C)C(=O)N[C@@H](CCC(=O)O)C(=O)N[C@@H](CC(C)C)C(=O)N[C@@H](Cc1c[nH]cn1)C(=O)N[C@@H](CCC(=O)O)C(=O)N[C@@H](CC(C)C)C(=O)N[C@@H](C)C(=O)N[C@H](C(=O)N[C@@H](CC(C)C)C(=O)N1CCC[C@H]1C(=O)N[C@@H](CCCNC(=N)N)C(=O)N[C@H](C(=O)N[C@@H](CCC(=O)O)C(=O)N[C@H](C(=O)NCC(=O)N[C@@H](CO)C(=O)NCC(=O)N[C@@H](CO)C(=O)N[C@@H](Cc1ccccc1)C(N)=O)[C@@H](C)O)[C@@H](C)O)[C@@H](C)O
notes: also called Ex. #61
B6: [N-terminal(C20 diacid-gGlu), des1, 30T, 31G, 32T]mimylin (peptide)
peptide: {C20 diacid-γGlu}-ASELSTAALGRLSAELHELATLPRTETGTGTP-NH2
SMILES: CC(C)C[C@H](NC(=O)[C@H](C)NC(=O)[C@H](C)NC(=O)[C@@H](NC(=O)[C@H](CO)NC(=O)[C@H](CC(C)C)NC(=O)[C@H](CCC(=O)O)NC(=O)[C@H](CO)NC(=O)[C@H](C)NC(=O)CC[C@H](NC(=O)CCCCCCCCCCCCCCCCCCC(=O)O)C(=O)O)[C@@H](C)O)C(=O)NCC(=O)N[C@@H](CCCNC(=N)N)C(=O)N[C@@H](CC(C)C)C(=O)N[C@@H](CO)C(=O)N[C@@H](C)C(=O)N[C@@H](CCC(=O)O)C(=O)N[C@@H](CC(C)C)C(=O)N[C@@H](Cc1c[nH]cn1)C(=O)N[C@@H](CCC(=O)O)C(=O)N[C@@H](CC(C)C)C(=O)N[C@@H](C)C(=O)N[C@H](C(=O)N[C@@H](CC(C)C)C(=O)N1CCC[C@H]1C(=O)N[C@@H](CCCNC(=N)N)C(=O)N[C@H](C(=O)N[C@@H](CCC(=O)O)C(=O)N[C@H](C(=O)NCC(=O)N[C@H](C(=O)NCC(=O)N[C@H](C(=O)N1CCC[C@H]1C(N)=O)[C@@H](C)O)[C@@H](C)O)[C@@H](C)O)[C@@H](C)O)[C@@H](C)O
notes: also called Ex. #74
B7: [N-terminal(C20 diacid-gGlu), des1, 30S, 31G, 33A]mimylin (peptide)
peptide: {C20 diacid-γGlu}-ASELSTAALGRLSAELHELATLPRTETGSGSA-NH2
SMILES: CC(C)C[C@H](NC(=O)[C@H](C)NC(=O)[C@H](C)NC(=O)[C@@H](NC(=O)[C@H](CO)NC(=O)[C@H](CC(C)C)NC(=O)[C@H](CCC(=O)O)NC(=O)[C@H](CO)NC(=O)[C@H](C)NC(=O)CC[C@H](NC(=O)CCCCCCCCCCCCCCCCCCC(=O)O)C(=O)O)[C@@H](C)O)C(=O)NCC(=O)N[C@@H](CCCNC(=N)N)C(=O)N[C@@H](CC(C)C)C(=O)N[C@@H](CO)C(=O)N[C@@H](C)C(=O)N[C@@H](CCC(=O)O)C(=O)N[C@@H](CC(C)C)C(=O)N[C@@H](Cc1c[nH]cn1)C(=O)N[C@@H](CCC(=O)O)C(=O)N[C@@H](CC(C)C)C(=O)N[C@@H](C)C(=O)N[C@H](C(=O)N[C@@H](CC(C)C)C(=O)N1CCC[C@H]1C(=O)N[C@@H](CCCNC(=N)N)C(=O)N[C@H](C(=O)N[C@@H](CCC(=O)O)C(=O)N[C@H](C(=O)NCC(=O)N[C@@H](CO)C(=O)NCC(=O)N[C@@H](CO)C(=O)N[C@@H](C)C(N)=O)[C@@H](C)O)[C@@H](C)O)[C@@H](C)O
notes: also called Ex. #65
B8: [N-terminal(C20 diacid-gGlu), des1, 30S, 31G, 33H]mimylin (peptide)
peptide: {C20 diacid-γGlu}-ASELSTAALGRLSAELHELATLPRTETGSGSH-NH2
SMILES: CC(C)C[C@H](NC(=O)[C@H](C)NC(=O)[C@H](C)NC(=O)[C@@H](NC(=O)[C@H](CO)NC(=O)[C@H](CC(C)C)NC(=O)[C@H](CCC(=O)O)NC(=O)[C@H](CO)NC(=O)[C@H](C)NC(=O)CC[C@H](NC(=O)CCCCCCCCCCCCCCCCCCC(=O)O)C(=O)O)[C@@H](C)O)C(=O)NCC(=O)N[C@@H](CCCNC(=N)N)C(=O)N[C@@H](CC(C)C)C(=O)N[C@@H](CO)C(=O)N[C@@H](C)C(=O)N[C@@H](CCC(=O)O)C(=O)N[C@@H](CC(C)C)C(=O)N[C@@H](Cc1c[nH]cn1)C(=O)N[C@@H](CCC(=O)O)C(=O)N[C@@H](CC(C)C)C(=O)N[C@@H](C)C(=O)N[C@H](C(=O)N[C@@H](CC(C)C)C(=O)N1CCC[C@H]1C(=O)N[C@@H](CCCNC(=N)N)C(=O)N[C@H](C(=O)N[C@@H](CCC(=O)O)C(=O)N[C@H](C(=O)NCC(=O)N[C@@H](CO)C(=O)NCC(=O)N[C@@H](CO)C(=O)N[C@@H](Cc1c[nH]cn1)C(N)=O)[C@@H](C)O)[C@@H](C)O)[C@@H](C)O
notes: also called Ex. #60

The target of the assay is T1, human calcitonin receptor. The experiment in a line: whole-cell competition vs 125I-human calcitonin (Assay VIIa). The essentials: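 BHK tk'ts 13 cells stably co-expressing human calcitonin receptor and a CRE-luciferase reporter, seeded overnight at 37 °C. Bound tracer counted by scintillation after cold HBSS washes and NaOH/SDS lysis; IC₅₀ from one-site competition fit taken as receptor affinity.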
For the molecule B1, the concentration for half-maximal inhibition (IC50) worked out at 0.442 nM.
The figure for B2 is 2.6 nM; for B3 it is 3.63 nM.
Turning to B4, the half-maximal inhibitory concentration (IC50) was 2.33 nM.
Take B5: the half-maximal inhibitory concentration (IC50) came to 1.76 nM.
For the molecule B6, the IC50 worked out at 1.08 nM.
With B7, the IC50 came to 1.25 nM.
The figure for B8 is 1.53 nM.
